Test results taken from PMC6060171.

Molecular target: AcrIIA6 (anti-CRISPR protein of Streptococcus thermophilus virulent phage D1811, product of gene D1811_026) (Streptococcus thermophilus phage D1811)
Assay: SEC; gel filtration profile of purified AcrIIA6; size exclusion chromatography in 20 mM Hepes pH 7.5, 150 mM NaCl

Substance: AcrIIA6 (anti-CRISPR protein of Streptococcus thermophilus virulent phage D1811, product of gene D1811_026) (natural protein)
- stoichiometry N: 2
